Data from publication PMC7851051.
Like-named read-outs stand apart in the source and are kept apart here.

How the values were obtained:
[1] = target: LLO118int single-chain TCR (scTCR), displayed on yeast (mouse); test: flow cytometry on cells
[2] = target: LLO118int single-chain TCR (scTCR), displayed on yeast (mouse); test: flow cytometry on cells; remark: listed apart in the source
[3] = target: LLO118low single-chain TCR (scTCR), displayed on yeast (mouse); test: flow cytometry on cells
[4] = target: LLO56low single-chain TCR (scTCR), displayed on yeast (mouse); test: flow cytometry on cells
[5] = target: LLO118_(high) single-chain TCR (scTCR), displayed on yeast (mouse); test: flow cytometry on cells; scTCR displayed on yeast stained with LLO_(190-201)/I-A^b tetramer; histograms (Figure 1C)
[6] = target: LLO56int single-chain TCR (scTCR), displayed on yeast (mouse); test: as above
[7] = target: LLO56int single-chain TCR (scTCR), displayed on yeast (mouse); test: flow cytometry on cells; tetramer decay on yeast-displayed scTCR as above, second round with lower levels of MHC inhibiting-antibody (Figure 2D); multivalent half-life
[8] = target: LLO118_(high) single-chain TCR (scTCR), displayed on yeast (mouse); test: flow cytometry on cells; tetramer decay on yeast-displayed scTCR: 6.5 µg/ml tetramer, 1.5 h, room temperature, washed, then anti-mouse MHC class II (M5/114.15.2) added and tetramer followed for 2-60 min; first round (Figure 2C); multivalent half-life
[9] = target: LLO56int single-chain TCR (scTCR), displayed on yeast (mouse); test: as above
[10] = target: LLO118_(high) single-chain TCR (scTCR), displayed on yeast (mouse); test: flow cytometry on cells; tetramer titration on yeast-displayed scTCR: 1x10^6 induced cells, 0.152 nM to 12.16 nM tetramer, 1.5 h, room temperature; MFI normalised; KD = 50% maximum binding concentration, one site-specific fit; multivalent avidity; percent of cells bound (Figure 2B)
[11] = target: LLO56int single-chain TCR (scTCR), displayed on yeast (mouse); test: as above

## LLO_(190-201)/I-A^b tetramer (peptide-MHC)
[1]
  other: 6.7 min
[2]
  Kd: 44.8 nM
  other: 24.5%
[3]
  other: 1.1%
[4]
  other: 0.75%
[5]
  log better tetramer binding than LLO118int: 1 log
  log better tetramer binding than LLO118low: 2.5 log
[6]
  log better tetramer binding than LLO56low: 1.5 log
[7]
  t1/2: 3.5 min
[8]
  t1/2: 165 m
[9]
  t1/2: 1 m
[10]
  Kd: 7.33 nM
  percent of cells bound by tetramer: 43.3%
[11]
  Kd: 39.2 nM
  percent of cells bound by tetramer: 12.6%
